Data reported in paper PMC11969024 (2025).

B1: peptide HD2 (from tick evasin EVA4) / CXCL11 (biotinylated, synthetic) (parent complex)
chain 1: EEDDYTAYAPLTCYFT
chain 2: FPMFKRGRCLCIGPGVKAVKVADIEKASIMYPSNNCDKIEVIITLKENKGQRCLNPKSKQARLIIKKVERKNF
B2: peptide HD2 (from tick evasin EVA4) / CXCL14 (biotinylated, synthetic) (parent complex)
chain 1: EEDDYTAYAPLTCYFT
chain 2: SKCKCSRKGPKIRYSDVKKLEMKPKYPHCEEKMVIITTKSVSRYRGQEHCLHPKLQSTKRFIKWYNAWNEKRRVYEE

Variants of: B1

First: chain 1 T6D
Second: chain 1 T16I
The enrichment of the first is higher: 3.67 log2 (difference from the parental peptide) for the first, 0.577 log2 (difference from the parental peptide) for the second.

Compared with chain 1 T6F, chain 1 L11R is lower in enrichment: 4.5 log2 (difference from the parental peptide) for the first, -3.19 log2 (difference from the parental peptide) for the second.

First: chain 1 Y14C
Second: chain 1 A9M
The enrichment of the first is lower: -3.13 log2 (difference from the parental peptide) for the first, -0.281 log2 (difference from the parental peptide) for the second.

Going from chain 1 A9I to chain 1 A7F, the enrichment rises from -4.81 log2 (difference from the parental peptide) to 1.43 log2 (difference from the parental peptide).

First: chain 1 D3W
Second: chain 1 A9N
The enrichment of the first is higher: 0.263 log2 (difference from the parental peptide) for the first, -2.99 log2 (difference from the parental peptide) for the second.

First: chain 1 F15Y
Second: chain 1 T16S
The enrichment of the first is higher: 0.592 log2 (difference from the parental peptide) for the first, 0.254 log2 (difference from the parental peptide) for the second.

Going from chain 1 D3Y to chain 1 P10L, the enrichment rises from -1.43 log2 (difference from the parental peptide) to -1.17 log2 (difference from the parental peptide).

Compared with chain 1 T16C, chain 1 L11A is lower in enrichment: 2.71 log2 (difference from the parental peptide) for the first, -1.47 log2 (difference from the parental peptide) for the second.

Going from chain 1 F15E to chain 1 P10S, the enrichment rises from -6.06 log2 (difference from the parental peptide) to -1.81 log2 (difference from the parental peptide).

First: chain 1 C13A
Second: chain 1 Y8H
The enrichment of the first is lower: -5.18 log2 (difference from the parental peptide) for the first, -4.71 log2 (difference from the parental peptide) for the second.

Compared with chain 1 P10V, chain 1 T6A is higher in enrichment: -5.93 log2 (difference from the parental peptide) for the first, 1.82 log2 (difference from the parental peptide) for the second.

First: chain 1 T6G
Second: chain 1 P10I
The enrichment of the first is higher: 4.62 log2 (difference from the parental peptide) for the first, -0.366 log2 (difference from the parental peptide) for the second.

Compared with chain 1 T12H, chain 1 A9H is lower in enrichment: -2.7 log2 (difference from the parental peptide) for the first, -5.35 log2 (difference from the parental peptide) for the second.

Going from chain 1 A9L to chain 1 T6Y, the enrichment rises from -2.33 log2 (difference from the parental peptide) to 3.68 log2 (difference from the parental peptide).

Compared with chain 1 T12W, chain 1 L11P is lower in enrichment: 0.223 log2 (difference from the parental peptide) for the first, -5.24 log2 (difference from the parental peptide) for the second.

Compared with chain 1 T12M, chain 1 D4P is higher in enrichment: 0.317 log2 (difference from the parental peptide) for the first, 0.748 log2 (difference from the parental peptide) for the second.

Compared with chain 1 Y14F, chain 1 E1L is lower in enrichment: 0.796 log2 (difference from the parental peptide) for the first, -0.107 log2 (difference from the parental peptide) for the second.

First: chain 1 A9W
Second: chain 1 E1I
The enrichment of the first is higher: 5.42 log2 (difference from the parental peptide) for the first, 0.804 log2 (difference from the parental peptide) for the second.

Going from chain 1 Y8D to chain 1 A7R, the enrichment rises from -3.68 log2 (difference from the parental peptide) to -1.89 log2 (difference from the parental peptide).

Compared with chain 1 P10W, chain 1 A7G is lower in enrichment: 0.743 log2 (difference from the parental peptide) for the first, -3.03 log2 (difference from the parental peptide) for the second.

Compared with chain 1 Y8M, chain 1 F15A is higher in enrichment: -5.63 log2 (difference from the parental peptide) for the first, -3.02 log2 (difference from the parental peptide) for the second.

Compared with chain 1 D4V, chain 1 Y5F is higher in enrichment: -6.99 log2 (difference from the parental peptide) for the first, -0.5 log2 (difference from the parental peptide) for the second.

First: chain 1 T6M
Second: chain 1 P10N
The enrichment of the first is higher: 1.9 log2 (difference from the parental peptide) for the first, 1.47 log2 (difference from the parental peptide) for the second.

Going from chain 1 D3T to chain 1 T12D, the enrichment falls from -3.75 log2 (difference from the parental peptide) to -5.79 log2 (difference from the parental peptide).

Going from chain 1 A7P to chain 1 T12S, the enrichment falls from 0.432 log2 (difference from the parental peptide) to -1.85 log2 (difference from the parental peptide).

Compared with chain 1 C13Q, chain 1 L11W is higher in enrichment: -4.93 log2 (difference from the parental peptide) for the first, 4.79 log2 (difference from the parental peptide) for the second.

First: chain 1 T6K
Second: chain 1 L11S
The enrichment of the first is higher: 0.156 log2 (difference from the parental peptide) for the first, -0.706 log2 (difference from the parental peptide) for the second.

Going from chain 1 E1D to chain 1 E1A, the enrichment falls from 1.33 log2 (difference from the parental peptide) to 0.823 log2 (difference from the parental peptide).

Compared with chain 1 Y8V, chain 1 Y14G is lower in enrichment: -0.599 log2 (difference from the parental peptide) for the first, -6.05 log2 (difference from the parental peptide) for the second.

First: chain 1 E2K
Second: chain 1 T16F
The enrichment of the first is lower: -2.28 log2 (difference from the parental peptide) for the first, -2.01 log2 (difference from the parental peptide) for the second.

Compared with chain 1 Y14V, chain 1 F15H is higher in enrichment: -5.26 log2 (difference from the parental peptide) for the first, -2.86 log2 (difference from the parental peptide) for the second.

First: chain 1 F15V
Second: chain 1 F15Q
The enrichment of the first is higher: -0.608 log2 (difference from the parental peptide) for the first, -2.96 log2 (difference from the parental peptide) for the second.

Going from chain 1 Y14H to chain 1 P10H, the enrichment falls from -2.54 log2 (difference from the parental peptide) to -5.09 log2 (difference from the parental peptide).

Compared with chain 1 D4S, chain 1 A9V is higher in enrichment: -5.73 log2 (difference from the parental peptide) for the first, -2.18 log2 (difference from the parental peptide) for the second.

First: chain 1 A7V
Second: chain 1 E1V
The enrichment of the first is higher: 0.52 log2 (difference from the parental peptide) for the first, -6.09 log2 (difference from the parental peptide) for the second.

Going from chain 1 A7K to chain 1 T6N, the enrichment rises from -3.04 log2 (difference from the parental peptide) to 1.03 log2 (difference from the parental peptide).

Going from chain 1 T12R to chain 1 A7T, the enrichment rises from -6.22 log2 (difference from the parental peptide) to -0.798 log2 (difference from the parental peptide).

Compared with chain 1 T12Y, chain 1 T16G is lower in enrichment: 1.35 log2 (difference from the parental peptide) for the first, 0.304 log2 (difference from the parental peptide) for the second.

First: chain 1 C13N
Second: chain 1 C13L
The enrichment of the first is higher: -3.76 log2 (difference from the parental peptide) for the first, -8.45 log2 (difference from the parental peptide) for the second.

First: chain 1 Y8G
Second: chain 1 E2L
The enrichment of the first is lower: -1.09 log2 (difference from the parental peptide) for the first, -1.04 log2 (difference from the parental peptide) for the second.

Going from chain 1 Y5L to chain 1 E2D, the enrichment rises from -4.33 log2 (difference from the parental peptide) to 0.953 log2 (difference from the parental peptide).

Compared with chain 1 C13P, chain 1 Y8T is higher in enrichment: -5.74 log2 (difference from the parental peptide) for the first, -5.62 log2 (difference from the parental peptide) for the second.

Going from chain 1 D3I to chain 1 E2V, the enrichment rises from -2.24 log2 (difference from the parental peptide) to -1.84 log2 (difference from the parental peptide).

Going from chain 1 Y8A to chain 1 D3L, the enrichment rises from -0.869 log2 (difference from the parental peptide) to -0.828 log2 (difference from the parental peptide).

Compared with chain 1 T12L, chain 1 Y8W is higher in enrichment: -0.306 log2 (difference from the parental peptide) for the first, 2.23 log2 (difference from the parental peptide) for the second.

Compared with chain 1 T12P, chain 1 L11K is lower in enrichment: -0.00384 log2 (difference from the parental peptide) for the first, -4.12 log2 (difference from the parental peptide) for the second.

Going from chain 1 P10G to chain 1 T12N, the enrichment falls from 2.73 log2 (difference from the parental peptide) to -0.502 log2 (difference from the parental peptide).

Going from chain 1 Y14L to chain 1 T12C, the enrichment falls from -3.92 log2 (difference from the parental peptide) to -5.77 log2 (difference from the parental peptide).

Compared with chain 1 A9Y, chain 1 F15D is higher in enrichment: -4.48 log2 (difference from the parental peptide) for the first, -1.93 log2 (difference from the parental peptide) for the second.

First: chain 1 E1F
Second: chain 1 F15K
The enrichment of the first is higher: -0.271 log2 (difference from the parental peptide) for the first, -4.14 log2 (difference from the parental peptide) for the second.

First: chain 1 A9P
Second: chain 1 E1W
The enrichment of the first is lower: 0.549 log2 (difference from the parental peptide) for the first, 1.25 log2 (difference from the parental peptide) for the second.

First: chain 1 C13S
Second: chain 1 E1Q
The enrichment of the first is lower: -1.17 log2 (difference from the parental peptide) for the first, 2.79 log2 (difference from the parental peptide) for the second.

Going from chain 1 D4Q to chain 1 A7Y, the enrichment rises from -3.62 log2 (difference from the parental peptide) to 2.5 log2 (difference from the parental peptide).

First: chain 1 A9G
Second: chain 1 T16A
The enrichment of the first is lower: -1.08 log2 (difference from the parental peptide) for the first, -0.756 log2 (difference from the parental peptide) for the second.

Compared with chain 1 A7I, chain 1 P10A is lower in enrichment: 1.35 log2 (difference from the parental peptide) for the first, -0.641 log2 (difference from the parental peptide) for the second.

Going from chain 1 T16W to chain 1 E2N, the enrichment falls from 0.43 log2 (difference from the parental peptide) to -4.96 log2 (difference from the parental peptide).

Compared with chain 1 E1G, chain 1 Y14A is lower in enrichment: -4.38 log2 (difference from the parental peptide) for the first, -7.18 log2 (difference from the parental peptide) for the second.

First: chain 1 L11F
Second: chain 1 Y8L
The enrichment of the first is higher: 2.94 log2 (difference from the parental peptide) for the first, -0.881 log2 (difference from the parental peptide) for the second.

Compared with chain 1 Y14W, chain 1 E1M is higher in enrichment: -6.01 log2 (difference from the parental peptide) for the first, 0.144 log2 (difference from the parental peptide) for the second.

First: chain 1 E2W
Second: chain 1 F15W
The enrichment of the first is higher: 1.67 log2 (difference from the parental peptide) for the first, -6.32 log2 (difference from the parental peptide) for the second.

Going from chain 1 A9F to chain 1 E1H, the enrichment falls from -0.826 log2 (difference from the parental peptide) to -5.11 log2 (difference from the parental peptide).

Compared with chain 1 T6L, chain 1 T6E is higher in enrichment: 3.05 log2 (difference from the parental peptide) for the first, 3.52 log2 (difference from the parental peptide) for the second.

Compared with chain 1 T6V, chain 1 F15I is lower in enrichment: -0.999 log2 (difference from the parental peptide) for the first, -3.39 log2 (difference from the parental peptide) for the second.

First: chain 1 F15P
Second: chain 1 D3G
The enrichment of the first is higher: -3.5 log2 (difference from the parental peptide) for the first, -4.59 log2 (difference from the parental peptide) for the second.

Compared with chain 1 P10T, chain 1 E1T is lower in enrichment: -0.0022 log2 (difference from the parental peptide) for the first, -1.21 log2 (difference from the parental peptide) for the second.

First: chain 1 C13H
Second: chain 1 C13T
The enrichment of the first is lower: -5.78 log2 (difference from the parental peptide) for the first, -3.56 log2 (difference from the parental peptide) for the second.

Compared with chain 1 Y5H, chain 1 D4Y is lower in enrichment: -0.00324 log2 (difference from the parental peptide) for the first, -4.43 log2 (difference from the parental peptide) for the second.

First: chain 1 T16K
Second: chain 1 A9S
The enrichment of the first is lower: -4.41 log2 (difference from the parental peptide) for the first, -0.211 log2 (difference from the parental peptide) for the second.

First: chain 1 E1S
Second: chain 1 E2A
The enrichment of the first is higher: -1.7 log2 (difference from the parental peptide) for the first, -2.47 log2 (difference from the parental peptide) for the second.

chain 1 T16N was tested, and the enrichment was -3.84 log2 (difference from the parental peptide).

Variants of: B2

Going from chain 1 F15H to chain 1 E1V, the enrichment falls from -4.57 log2 (difference from the parental peptide) to -5.63 log2 (difference from the parental peptide).

First: chain 1 L11A
Second: chain 1 A7Y
The enrichment of the first is lower: 0.339 log2 (difference from the parental peptide) for the first, 2.89 log2 (difference from the parental peptide) for the second.

First: chain 1 P10Q
Second: chain 1 F15V
The enrichment of the first is lower: -4.65 log2 (difference from the parental peptide) for the first, 0.451 log2 (difference from the parental peptide) for the second.

Going from chain 1 A9F to chain 1 Y5M, the enrichment falls from 0.278 log2 (difference from the parental peptide) to -5.9 log2 (difference from the parental peptide).

First: chain 1 D3N
Second: chain 1 E2N
The enrichment of the first is higher: 1.21 log2 (difference from the parental peptide) for the first, 0.243 log2 (difference from the parental peptide) for the second.

For chain 1 A9G, the enrichment was -5.95 log2 (difference from the parental peptide).
